{"source": "paper PMC9158119", "about": "(2022)", "target": "SARS-CoV-2 original strain spike receptor-binding domain (S-RBD) (SARS-CoV-2, UniProt P0DTC2 320-537)", "assay": "SPR"}
{"binder": "Nb-007 (VHH) VHH: QLQLVESGGGLVQAGGSMRLSCAASISFSSFPMGWHRQAPGKQRELVAKTGIGGTAYDDSVKGRFTISRDNTKNTVYLQMNSLKVEDTAVYYCWGWRMNDYWGQGTQVTVSS", "values": [{"measurement": "koff", "value": 0.00103, "unit": "s⁻¹"}]}
